Results on 1 substance are retold here after publication PMC4263579.

For orientation: stoichiometry N means the number of molecules, sites or subunits per partner or assembly.

In this assay the target is recombinant NS1 protein (dengue virus non-structural 1 protein). Description: native gel or EMSA; Native-PAGE of the recombinant NS1 protein; data not shown. (In EMSA bound probe runs differently from free probe, usually more slowly.)

Regarding “recombinant NS1 protein (dengue virus non-structural 1 protein)”, the stoichiometry N came to 6.
